Results taken from US20220282255, “APTAMER FOR TGF-BETA1 AND USE OF SAME” (RIBOMIC INC., published 2022).
Changes are numbered by the printed parent chain.

B1: SEQ ID NO: 36 (ssRNA)
RNA: GGGAGAACUUGGAGCUCCUGAAUAAGGGAGGGGAGACUUGUGGAGGGCAAAAGUGCGACGUCAGUC
modifications: 2'-F all pyrimidines (U,C)
B2: SEQ ID NO: 38 (ssRNA)
RNA: B1 RNA with A29U, A51G
modifications: 2'-F all pyrimidines (U,C)
B3: SEQ ID NO: 35 (ssRNA)
RNA: B1 RNA with A51G
modifications: 2'-F all pyrimidines (U,C)
B4: SEQ ID NO: 37 (ssRNA)
RNA: B1 RNA with A44U, A51G
modifications: 2'-F all pyrimidines (U,C)
B5: SEQ ID NO: 28 (ssRNA)
RNA: GGGAAUGCACUAGUGUUCAAUAAACACUAAGUGAUCCUCCUGCAAGCUAUGAAGAACUUAACGGCUCGUAAAGCUUGCACGUCGAGUCAG
modifications: 2'-F all pyrimidines (U,C)
B6: SEQ ID NO: 5 (ssRNA)
RNA: GGGAUCCGCAUCUAGAGUACAUCGUGGCGGGAAAGCCGCCCCAUUCUCUCGGGUCCUAGAAACGUCUACUGAAGCUAUCA
modifications: 2'-F all pyrimidines (U,C)
B7: SEQ ID NO: 18 (ssRNA)
RNA: GGGAGAACUUGGAGCUCCCCCUCGCACUUAAUGGGUUCUGUGGCUGGAGAAAGUGCGACGUCAGUC
modifications: 2'-F all pyrimidines (U,C)
B8: SEQ ID NO: 11 (ssRNA)
RNA: GGGAUCCGCAUCUAGAGUACCGCGUGAGCGGCGUCUUGCUAUGACGUAAAGAAUCGUUACAACGUCUACUGAAGCUAUCA
modifications: 2'-F all pyrimidines (U,C)
B9: SEQ ID NO: 20 (ssRNA)
RNA: GGGAGAACUUGGAGCUGGUCCGGAAACUGGAUUCUCUCUAAAAGGGGUACCAGUGCGACGUCAGUC
modifications: 2'-F all pyrimidines (U,C)
B10: SEQ ID NO: 22 (ssRNA)
RNA: GGGAGAACUUGGAGCUUGACGGCGCUACAUUAUGCUCCAACGGUACUUUAUAGUGCGACGUCAGUC
modifications: 2'-F all pyrimidines (U,C)
B11: SEQ ID NO: 4 (ssRNA)
RNA: GGGAUCCGCAUCUAGAGUACUAAGGGUGGGGAGACUUGGGCCGGGCAGUCAGACGCGUGAAACGUCUACUGAAGCUAUCA
modifications: 2'-F all pyrimidines (U,C)
B12: SEQ ID NO: 19 (ssRNA)
RNA: GGGAGAACUUGGAGCUCCCCCUCGCAUUCGGAUUAAUUUGUGACUGCAUUGAGUGCGACGUCAGUC
modifications: 2'-F all pyrimidines (U,C)

The binders below were run against T1, TGF-β1 (Homo sapiens, UniProt P01137 P01137:279-390) (assay: cell_activity; 80 pM:20 nM). Conditions: tags: Recombinant Human TGF-β1, Peprotech; chain copies: 2 (homodimer, inferred); G4 (predicted).
Method: (§1) Whether the nucleic acids of SEQ ID NOs: 4-13, 17-22, 26-28 inhibit the activity of TGF-β1 was evaluated by a cell assay system that monitors Smad signaling pathway known to be activated by the stimulation of TGF-β. To be specific, photinus luciferase equipped with SBE (Smad-binding element) in the promoter region was used as a reporter (pGL4.48[luc2P/SBE/Hygro] Vector, Promega KK). Together with this SBE-induced photinus luciferase reporter plasmid, a renillaluciferase expression plasmid (pGL4.74[hRluc/TK] Vector, Promega KK) was mixed at a ratio of 20:1 as a standardized control for transfection efficiency, and transfected into HEK293 cells. The transfected HEK293 cells were re-seeded in a 96-well plate and cultured until confluent. TGF-β1 and a mixture of nucleic acid aptamers of SEQ ID NOs: 4-13, 17-22, 26-28 synthesized using T7 RNA polymerase (Y639F) were added thereto to respective final concentrations of 80 pM, 20 nM, and the cells were cultured for 3 hr. Thereafter, the expression levels of photinus luciferase and renillaluciferase were confirmed using Dual-Luciferase (registered trade mark) Reporter Assay System (Promega KK). The measurement value of photinus luciferase in each sample was corrected with the measured value of renillaluciferase, and the relative expression level of each sample was calculated by setting the ratio of photinus luciferase and renillaluciferase in a sample free of addition of TGF-β1 as 1. […] When a nucleic acid pool of 35N, 40N or 50N (SEQ ID NO: 14, 1, 23) was used as a negative control and a known TGF-β antibody (R&D, MAB1835) was used as a positive control, the same treatment and measurement were performed.
Whether or not these nucleic acids inhibit the activity of TGF-β1 was evaluated by a luciferase reporter assay similar to that in Example 4, as in Example 1.

T1 sequence (P01137 279-390, one chain of several): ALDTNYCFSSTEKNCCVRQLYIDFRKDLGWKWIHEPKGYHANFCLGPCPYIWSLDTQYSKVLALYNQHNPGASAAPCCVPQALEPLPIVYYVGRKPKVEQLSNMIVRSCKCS

Binder	activity
B1	101 % inhibition
B2	100 % inhibition
B3	100 % inhibition
B4	100 % inhibition

The binders below were run against T1, TGF-β1 (assay: SPR; ++). Conditions: tags: Recombinant Human TGF-β1, Peprotech; chain copies: 2 (homodimer, inferred).

Binder	binding result
B5	binds
B6	binds
B7	binds
B8	binds
B9	binds
B10	binds

These binders were tested against T1, TGF-β1 (assay: cell_activity; 80 pM:312.5 pM). Conditions: tags: Recombinant Human TGF-β1, Peprotech; chain copies: 2 (homodimer, inferred).
Method: as §1, with “TGF-β1 and a mixture of nucleic acid aptamers of SEQ ID NOs: 4-13, 17-22, 26-28 synthesized using T7 RNA polymerase (Y639F) were added thereto to respective final concentrations of 80 pM, 20 nM, and the cells were cultured for 3 hr.” left out
(§2) The nucleic acids of SEQ ID NOs: 42(2-1)-42(2-8) used were chemically synthesized and purified by HPLC. Whether or not these nucleic acids inhibit the binding of TGF-β1 to the TGF-β receptor was determined by injecting a mixed solution of TGF-β1 (4 nM) and nucleic acid (4 nM) in the same manner as in Example 4, and evaluating by the surface plasmon resonance method.

Binder	activity
GGCAUAAGGGAGGGGAGACUUGUGGAGGGCAAG (ssRNA, 2'-OMe at A4, A11; 2'-F all pyrimidines) [SEQ ID NO: 42(2-3)]	66 % inhibition
GGCAUAAGGGAGGGGAGACUUGUGGAGGGCAAG (ssRNA, 2'-OMe at A11, A26; 2'-F all pyrimidines) [SEQ ID NO: 42(2-1)]	61 % inhibition
GGCAUAAGGGAGGGGAGACUUGUGGAGGGCAAG (ssRNA, 2'-OMe at A11, A16; 2'-F all pyrimidines) [SEQ ID NO: 42(2-4)]	64 % inhibition
GGCAUAAGGGAGGGGAGACUUGUGGAGGGCAAG (ssRNA, 2'-OMe at A11, G33; 2'-F all pyrimidines) [SEQ ID NO: 42(2-8)]	72 % inhibition
GGCAUAAGGGAGGGGAGACUUGUGGAGGGCAAG (ssRNA, 2'-OMe at A11, G17; 2'-F all pyrimidines) [SEQ ID NO: 42(2-5)]	62 % inhibition
GGCAUAAGGGAGGGGAGACUUGUGGAGGGCAAG (ssRNA, 2'-OMe at G1, A11; 2'-F all pyrimidines) [SEQ ID NO: 42(2-2)]	66 % inhibition
GGCAUAAGGGAGGGGAGACUUGUGGAGGGCAAG (ssRNA, 2'-OMe at A11, A32; 2'-F all pyrimidines) [SEQ ID NO: 42(2-7)]	78 % inhibition
GGCAUAAGGGAGGGGAGACUUGUGGAGGGCAAG (ssRNA, 2'-OMe at A11, A31; 2'-F all pyrimidines) [SEQ ID NO: 42(2-6)]	72 % inhibition

What follows are binders tested against T1, TGF-β1 (assay: SPR; receptor-binding inhibition, 4 nM:4 nM). Conditions: tags: Recombinant Human TGF-β1, Peprotech; chain copies: 2 (homodimer, inferred).
Method: (§3) Measurement of Inhibitory Activity of Aptamer Against TGF-β1-2 Whether or not the nucleic acids of SEQ ID NOs: 6, 9, 19, 21, 26 inhibit the binding of TGF-β1 to the TGF-β receptor was evaluated by surface plasmon resonance method. For the measurement, Biacore T200 manufactured by GE Healthcare was used, and the measurement was performed by the method shown below. About 1500 RU of protein A was immobilized on the surface of a sensor chip of CM4 chip by using an amine coupling kit. 20 μL of Fc fusion TRII receptor (R&D) adjusted to 30 nM was injected as an analyte at a flow rate of 20 μL/min. As a result, the Fc fusion TRII receptor was immobilized on the surface of the sensor chip of the CM4 chip via protein A. Furthermore, a mixed solution of TGF-β1 (4 nM) or TGF-β1 (10 nM), and nucleic acid (30 nM) was injected. Solution A was used as the running buffer. Based on the RU value of a sample injected with TGF-β1 alone and the RU value before injection of TGF-β1, the effect of suppressing an increase in the RU value when TGF-β1 was injected in the presence of nucleic acid was calculated as the effect of inhibiting the binding of TGF-β1 to the TRII receptor.
as §2, with “method. Whether or not these nucleic acids inhibit the activity of TGF-β1 was evaluated by adding to the final concentrations of TGF-β1 (80 pM) and nucleic acid (312.5 pM), and by a luciferase reporter assay as in Example 4.” for “method.”

Binder	binding signal
GGCAUAAGGGAGGGGAGACUUGUGGAGGGCAAG (ssRNA, 2'-OMe at A4, A11; 2'-F all pyrimidines) [SEQ ID NO: 42(2-3)]	70.7 % inhibition
GGCAUAAGGGAGGGGAGACUUGUGGAGGGCAAG (ssRNA, 2'-OMe at A11, A26; 2'-F all pyrimidines) [SEQ ID NO: 42(2-1)]	75.2 % inhibition
GGCAUAAGGGAGGGGAGACUUGUGGAGGGCAAG (ssRNA, 2'-OMe at A11, A16; 2'-F all pyrimidines) [SEQ ID NO: 42(2-4)]	84.2 % inhibition
GGCAUAAGGGAGGGGAGACUUGUGGAGGGCAAG (ssRNA, 2'-OMe at A11, G33; 2'-F all pyrimidines) [SEQ ID NO: 42(2-8)]	83 % inhibition
GGCAUAAGGGAGGGGAGACUUGUGGAGGGCAAG (ssRNA, 2'-OMe at A11, G17; 2'-F all pyrimidines) [SEQ ID NO: 42(2-5)]	75.6 % inhibition
GGCAUAAGGGAGGGGAGACUUGUGGAGGGCAAG (ssRNA, 2'-OMe at G1, A11; 2'-F all pyrimidines) [SEQ ID NO: 42(2-2)]	76 % inhibition
GGCAUAAGGGAGGGGAGACUUGUGGAGGGCAAG (ssRNA, 2'-OMe at A11, A32; 2'-F all pyrimidines) [SEQ ID NO: 42(2-7)]	78.9 % inhibition
GGCAUAAGGGAGGGGAGACUUGUGGAGGGCAAG (ssRNA, 2'-OMe at A11, A31; 2'-F all pyrimidines) [SEQ ID NO: 42(2-6)]	81.8 % inhibition

Molecular target: T1, TGF-β1
Assay: SPR; receptor-binding inhibition, 4 nM:4 nM
Conditions: tags: Recombinant Human TGF-β1, Peprotech; chain copies: 2 (homodimer, inferred)
Remark: another data set of the same source
Method: as §3
as §2, with “42-48” for “42(2-1)-42(2-8)”

Binder	binding signal
GGCAUAAGGGUGGGGAGACUUGUGGAGGGCAAG (ssRNA, 2'-F all pyrimidines (U,C)) [SEQ ID NO: 43]	99 % inhibition
GGCAUAAGGGUGGGGAGACUUGUGGUGGGCAAG (ssRNA, 2'-F all pyrimidines (U,C)) [SEQ ID NO: 46]	99.2 % inhibition
GGCAUAAGGGCGGGGAGACUUGUGGUGGGCAAG (ssRNA, 2'-F all pyrimidines (U,C)) [SEQ ID NO: 47]	99.2 % inhibition
GGCAUAAGGGAGGGGAGACUUGUGGUGGGCAAG (ssRNA, 2'-F all pyrimidines (U,C)) [SEQ ID NO: 45]	99.2 % inhibition
GGCAUAAGGGCGGGGAGACUUGUGGAGGGCAAG (ssRNA, 2'-F all pyrimidines (U,C)) [SEQ ID NO: 44]	98.7 % inhibition
GGCAUAAGGGAGGGGAGACUUGUGGCGGGUAAA (ssRNA, 2'-F all pyrimidines (U,C)) [SEQ ID NO: 48]	93.5 % inhibition

What follows are binders tested against T1, TGF-β1 (assay: cell_activity; SBE-luciferase HEK293, 80 pM:20 nM). Conditions: tags: Recombinant Human TGF-β1, Peprotech; chain copies: 2 (homodimer, inferred).
Method: as §1

Binder	activity
B11	63 % inhibition
B12	91 % inhibition

Molecular target: T1, TGF-β1
Assay: cell_activity; 80 pM:312.5 pM
Conditions: tags: Recombinant Human TGF-β1, Peprotech; chain copies: 2 (homodimer, inferred)
Remark: another data set of the same source
Method: as §1
Whether or not these nucleic acids inhibit the activity of TGF-β1 was evaluated by adding to the final concentrations of TGF-β1 (80 pM) and nucleic acid (312.5 pM), and by a luciferase reporter assay as in Example 4.

Binder	activity
GGCAUAAGGGUGGGGAGACUUGUGGAGGGCAAG (ssRNA, 2'-F all pyrimidines (U,C)) [SEQ ID NO: 43]	71.5 % inhibition
GGCAUAAGGGUGGGGAGACUUGUGGUGGGCAAG (ssRNA, 2'-F all pyrimidines (U,C)) [SEQ ID NO: 46]	57.3 % inhibition
GGCAUAAGGGCGGGGAGACUUGUGGUGGGCAAG (ssRNA, 2'-F all pyrimidines (U,C)) [SEQ ID NO: 47]	70.3 % inhibition
GGCAUAAGGGAGGGGAGACUUGUGGUGGGCAAG (ssRNA, 2'-F all pyrimidines (U,C)) [SEQ ID NO: 45]	65.5 % inhibition
GGCAUAAGGGCGGGGAGACUUGUGGAGGGCAAG (ssRNA, 2'-F all pyrimidines (U,C)) [SEQ ID NO: 44]	69.4 % inhibition
GGCAUAAGGGAGGGGAGACUUGUGGCGGGUAAA (ssRNA, 2'-F all pyrimidines (U,C)) [SEQ ID NO: 48]	63.9 % inhibition
